From paper PMC5477534

Test system: lac repressor (LacI)
Test: SFM imaging
Conditions: streptavidin bound, SFM: 7.5 nM LacI, about 30 min incubation, 100 uM NTPs for 60 s, EDTA quench, poly-L-ornithine-coated mica, buffer, salt, pH and temperature not in the …

With Os-400-O1 SFM template the binding signal (% looped molecules) (7.5 nM LacI, with transcription (NTP), 3'/downstream-end biotin) was 50, the binding signal (% operator occupancy) (7.5 nM LacI, without NTP (drops about 20% with transcription), 3'/downstream-end biotin) was > 90 and the binding signal (% looped molecules) (7.5 nM LacI, without transcription, 3'/downstream-end biotin) was 34.
O2-400-O1 SFM template gave a binding signal (% looped molecules) (LacI, with transcription (NTP), downstream-end biotin) of 14 and a binding signal (% looped molecules) (LacI, without transcription, downstream-end biotin) of 12.
